± gives the uncertainty stated by the source.
B1: Homeobox expressed in ES cells 1, residues 110 to 165; numbered along this chain, Q9UBX0 (parent)
chain: RPRTAFTQNQIEVLENVFRVNCYPGIDIREDLAQKLNLEEDRIQIWFQNRRAKLKR

Variants of: B1
Test: abundance fitness (aPCA) (normalised: wild type 0, dead -1); higher = more abundant; growth selection in yeast, the domain comes from the species named
Settings: Homo sapiens
In the case of E12D, the abundance fitness is reported as 0.28 ± 0.14.
Variant E12F has an abundance fitness of 0.203 ± 0.18.
For E12G, the abundance fitness was -0.525 ± 0.18.
In the case of E12I, the abundance fitness is reported as -0.612 ± 0.35.
For E12K, the abundance fitness was 0.487 ± 0.17.
Work on E12L yielded an abundance fitness of -0.236 ± 0.17.
Work on E12N yielded an abundance fitness of -0.148 ± 0.31.
E12P gave an abundance fitness of -1.07 ± 0.36.
For E12Q, the abundance fitness was 0.154 ± 0.21.
E12R showed an abundance fitness of -0.346 ± 0.12.
Variant E12S has an abundance fitness of 0.016 ± 0.14.
In the case of E12T, the abundance fitness is reported as -0.009 ± 0.15.
Work on E12V yielded an abundance fitness of -0.137 ± 0.095.
With E12W the abundance fitness was -0.704 ± 0.31.
In the case of E12Y, the abundance fitness is reported as -0.264 ± 0.37.
With V13A the abundance fitness was -0.272 ± 0.23.
Work on V13C yielded an abundance fitness of -0.149 ± 0.24.
V13D showed an abundance fitness of -0.757 ± 0.42.
Variant V13F has an abundance fitness of -0.378 ± 0.28.
V13H showed an abundance fitness of 0.023 ± 0.3.
V13I gave an abundance fitness of 0.467 ± 0.18.
With V13K the abundance fitness was -0.458 ± 0.22.
Variant V13L has an abundance fitness of -0.543 ± 0.2.
V13M showed an abundance fitness of 0.618 ± 0.2.
V13N gave an abundance fitness of -0.278 ± 0.29.
For V13P, the abundance fitness was -0.596 ± 0.14.
Work on V13Q yielded an abundance fitness of -0.184 ± 0.12.
V13S showed an abundance fitness of -0.224 ± 0.12.
For V13T, the abundance fitness was -0.141 ± 0.18.
Variant V13Y has an abundance fitness of -0.757 ± 0.47.
With L14A the abundance fitness was -1.02 ± 0.26.
With L14E the abundance fitness was -0.87 ± 0.45.
Work on L14G yielded an abundance fitness of -0.88 ± 0.11.
With L14I the abundance fitness was -0.298 ± 0.47.
For L14K, the abundance fitness was -0.519 ± 0.24.
In the case of L14M, the abundance fitness is reported as -0.267 ± 0.2.
Variant L14N has an abundance fitness of -0.506 ± 0.49.
L14R gave an abundance fitness of -0.77 ± 0.18.
With L14T the abundance fitness was -0.463 ± 0.47.
Work on L14W yielded an abundance fitness of -0.625 ± 0.37.
Work on E15A yielded an abundance fitness of -0.832 ± 0.4.
In the case of E15C, the abundance fitness is reported as -0.567 ± 0.26.
E15D gave an abundance fitness of -0.621 ± 0.39.
E15G showed an abundance fitness of -0.686 ± 0.093.
Work on E15H yielded an abundance fitness of -0.463 ± 0.15.
E15L showed an abundance fitness of -0.725 ± 0.088.
With E15M the abundance fitness was -0.196 ± 0.12.
In the case of E15P, the abundance fitness is reported as -0.499 ± 0.34.
In the case of E15R, the abundance fitness is reported as -0.503 ± 0.12.
E15S showed an abundance fitness of -0.854 ± 0.14.
E15T showed an abundance fitness of -0.741 ± 0.34.
E15V showed an abundance fitness of -0.81 ± 0.16.
Variant E15Y has an abundance fitness of -0.528 ± 0.16.
With N16C the abundance fitness was -0.365 ± 0.15.
For N16D, the abundance fitness was -0.073 ± 0.12.
In the case of N16E, the abundance fitness is reported as -0.114 ± 0.073.
Work on N16F yielded an abundance fitness of -0.962 ± 0.39.
N16K showed an abundance fitness of -0.034 ± 0.19.
Work on N16L yielded an abundance fitness of -0.561 ± 0.12.
N16M showed an abundance fitness of -0.215 ± 0.19.
For N16P, the abundance fitness was -1 ± 0.25.
For N16Q, the abundance fitness was -0.073 ± 0.15.
In the case of N16R, the abundance fitness is reported as -0.417 ± 0.19.
Work on N16S yielded an abundance fitness of -0.02 ± 0.13.
N16T gave an abundance fitness of -0.125 ± 0.16.
For N16V, the abundance fitness was -0.701 ± 0.16.
N16W showed an abundance fitness of -0.755 ± 0.27.
In the case of N16Y, the abundance fitness is reported as -0.56 ± 0.3.
In the case of V17A, the abundance fitness is reported as -0.06 ± 0.18.
For V17E, the abundance fitness was -0.372 ± 0.23.
V17F showed an abundance fitness of -0.562 ± 0.33.
V17H gave an abundance fitness of -0.427 ± 0.2.
Variant V17I has an abundance fitness of -0.091 ± 0.19.
Work on V17K yielded an abundance fitness of -0.552 ± 0.35.
V17L showed an abundance fitness of -0.308 ± 0.092.
In the case of V17M, the abundance fitness is reported as -0.197 ± 0.2.
V17P gave an abundance fitness of -0.743 ± 0.16.
V17Q showed an abundance fitness of -0.359 ± 0.31.
V17R showed an abundance fitness of -0.84 ± 0.18.
For V17S, the abundance fitness was -0.335 ± 0.079.
Variant V17T has an abundance fitness of -0.151 ± 0.091.
With V17W the abundance fitness was -0.923 ± 0.27.
Work on V17Y yielded an abundance fitness of -0.293 ± 0.21.
F18C gave an abundance fitness of -0.625 ± 0.47.
Work on F18D yielded an abundance fitness of -0.701 ± 0.28.
With F18G the abundance fitness was -0.812 ± 0.14.
F18I showed an abundance fitness of -0.328 ± 0.15.
Work on F18K yielded an abundance fitness of -0.845 ± 0.13.
F18L showed an abundance fitness of -0.459 ± 0.2.
Work on F18M yielded an abundance fitness of -1.06 ± 0.36.
F18Q gave an abundance fitness of -0.891 ± 0.38.
In the case of F18R, the abundance fitness is reported as -0.71 ± 0.089.
Work on F18S yielded an abundance fitness of -0.819 ± 0.14.
F18T gave an abundance fitness of -0.82 ± 0.24.
In the case of F18Y, the abundance fitness is reported as -0.083 ± 0.14.
Work on R19C yielded an abundance fitness of -0.354 ± 0.1.
R19E gave an abundance fitness of -0.291 ± 0.089.
For R19F, the abundance fitness was -0.467 ± 0.12.
With R19G the abundance fitness was -0.452 ± 0.071.
R19H gave an abundance fitness of -0.46 ± 0.27.
R19I showed an abundance fitness of -0.327 ± 0.26.
R19K showed an abundance fitness of -0.105 ± 0.18.
In the case of R19M, the abundance fitness is reported as -0.529 ± 0.22.
R19Q gave an abundance fitness of -0.187 ± 0.22.
With R19S the abundance fitness was -0.334 ± 0.11.
For R19T, the abundance fitness was -0.01 ± 0.12.
Variant R19V has an abundance fitness of -0.142 ± 0.12.
For R19W, the abundance fitness was -0.64 ± 0.18.
With R19Y the abundance fitness was -0.614 ± 0.38.
With V20A the abundance fitness was -0.052 ± 0.17.
For V20C, the abundance fitness was -0.218 ± 0.14.
V20D gave an abundance fitness of 0.136 ± 0.084.
V20E showed an abundance fitness of -0.1 ± 0.17.
For V20F, the abundance fitness was 0.333 ± 0.13.
Variant V20G has an abundance fitness of -0.157 ± 0.089.
Work on V20H yielded an abundance fitness of -0.021 ± 0.18.
For V20I, the abundance fitness was 0.077 ± 0.096.
Work on V20K yielded an abundance fitness of 0.106 ± 0.24.
Work on V20L yielded an abundance fitness of -0.186 ± 0.094.
Work on V20M yielded an abundance fitness of -0.091 ± 0.29.
V20N gave an abundance fitness of 0.208 ± 0.081.
For V20R, the abundance fitness was -0.118 ± 0.11.
V20S gave an abundance fitness of 0.072 ± 0.062.
V20T gave an abundance fitness of -0.03 ± 0.072.
Work on V20W yielded an abundance fitness of -0.436 ± 0.39.
V20Y gave an abundance fitness of -0.667 ± 0.41.
With N21A the abundance fitness was -1.03 ± 0.32.
Work on N21C yielded an abundance fitness of -0.69 ± 0.18.
N21D gave an abundance fitness of -0.412 ± 0.31.
With N21F the abundance fitness was -0.868 ± 0.41.
For N21G, the abundance fitness was -0.262 ± 0.21.
In the case of N21I, the abundance fitness is reported as -0.522 ± 0.38.
Work on N21L yielded an abundance fitness of -0.807 ± 0.36.
In the case of N21M, the abundance fitness is reported as -0.058 ± 0.18.
N21Q showed an abundance fitness of -0.158 ± 0.31.
Variant N21R has an abundance fitness of -0.948 ± 0.19.
Work on N21S yielded an abundance fitness of -0.454 ± 0.14.
With N21V the abundance fitness was -0.578 ± 0.12.
Work on N21W yielded an abundance fitness of -0.608 ± 0.46.
In the case of N21Y, the abundance fitness is reported as -0.592 ± 0.22.
For C22A, the abundance fitness was -0.061 ± 0.13.
With C22D the abundance fitness was -0.021 ± 0.21.
C22E showed an abundance fitness of 0.227 ± 0.18.
Variant C22F has an abundance fitness of -0.467 ± 0.1.
In the case of C22G, the abundance fitness is reported as -0.182 ± 0.12.
In the case of C22I, the abundance fitness is reported as 0.076 ± 0.11.
With C22K the abundance fitness was -0.328 ± 0.25.
C22L gave an abundance fitness of -0.134 ± 0.16.
With C22M the abundance fitness was 0.425 ± 0.15.
For C22P, the abundance fitness was 0.079 ± 0.13.
Work on C22Q yielded an abundance fitness of 0.156 ± 0.096.
C22R showed an abundance fitness of 0.054 ± 0.064.
C22S gave an abundance fitness of 0.187 ± 0.11.
For C22T, the abundance fitness was -0.013 ± 0.17.
Variant C22V has an abundance fitness of -0.392 ± 0.15.
Variant C22W has an abundance fitness of -0.066 ± 0.21.
In the case of C22Y, the abundance fitness is reported as 0.009 ± 0.1.
In the case of Y23A, the abundance fitness is reported as 0.05 ± 0.074.
For Y23C, the abundance fitness was 0.05 ± 0.076.
For Y23D, the abundance fitness was -0.23 ± 0.25.
Work on Y23F yielded an abundance fitness of -0.411 ± 0.3.
Y23K showed an abundance fitness of -0.262 ± 0.11.
For Y23L, the abundance fitness was -0.338 ± 0.13.
With Y23M the abundance fitness was -0.44 ± 0.27.
In the case of Y23N, the abundance fitness is reported as 0.114 ± 0.15.
For Y23Q, the abundance fitness was -0.251 ± 0.31.
Work on Y23R yielded an abundance fitness of -0.381 ± 0.12.

— the Human Domainome abundance scans (Beltran et al. 2025)
